The record followed here is patent US20170290876A1 (Novartis, published 2017).

T1: human VEGF (human, UniProt P15692 207-395, biotinylated (site not stated))
T1 construct: Biotinylated human VEGF generated internally; also called hVEGF; hVEGF-biotin
T1 sequence: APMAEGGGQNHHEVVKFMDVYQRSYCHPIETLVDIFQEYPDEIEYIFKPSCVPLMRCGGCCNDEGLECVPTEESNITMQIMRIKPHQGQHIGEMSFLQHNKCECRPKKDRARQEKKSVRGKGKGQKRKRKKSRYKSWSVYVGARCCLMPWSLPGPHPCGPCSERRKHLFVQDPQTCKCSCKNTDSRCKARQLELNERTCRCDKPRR

B1: LC7T (Fab, V domains shown)
VH: EVQLVESGGGLVQPGGSLRLSCTASGFSLTDYYYMTWVRQAPGKGLEWVGFIDPDDDPYYATWAKGRFTISRDNSKNTLYLQMNSLRAEDTAVYYCAGGDHNSGWGLDIWGQGTLVTVSS
VL: EIVMTQSPSTLSASVGDRVIITCQASQKIKSWLAWYQQKPGKAPKLLIYLASTLAKGVPSRFSGSGSGAEFTLTISSLQPDDFATYYCQNVYLASRNGANFGQGTKLTVLK
notes: Light chain CDR variant LC7 with tagged NVS4 heavy chain
B2: LC4T (Fab, V domains shown)
VH: EVQLVESGGGLVQPGGSLRLSCTASGFSLTDYYYMTWVRQAPGKGLEWVGFIDPDDDPYYATWAKGRFTISRDNSKNTLYLQMNSLRAEDTAVYYCAGGDHNSGWGLDIWGQGTLVTVSS
VL: EIVMTQSPSTLSASVGDRVIITCQASQKIHSWLAWYQQKPGKAPKLLIYQASTLAKGVPSRFSGSGSGAEFTLTISSLQPDDFATYYCQNVYLASTNGANFGQGTKLTVLK
notes: Light chain CDR variant LC4 with tagged NVS4 heavy chain
B3: LC6T (Fab, V domains shown)
VH: EVQLVESGGGLVQPGGSLRLSCTASGFSLTDYYYMTWVRQAPGKGLEWVGFIDPDDDPYYATWAKGRFTISRDNSKNTLYLQMNSLRAEDTAVYYCAGGDHNSGWGLDIWGQGTLVTVSS
VL: EIVMTQSPSTLSASVGDRVIITCQASQIIHSWLAWYQQKPGKAPKLLIYQASTLAKGVPSRFSGSGSGAEFTLTISSLQPDDFATYYCQNVYLASRNGANFGQGTKLTVLK
notes: Light chain CDR variant LC6 with tagged NVS4 heavy chain
B4: LC2T (Fab, V domains shown)
VH: EVQLVESGGGLVQPGGSLRLSCTASGFSLTDYYYMTWVRQAPGKGLEWVGFIDPDDDPYYATWAKGRFTISRDNSKNTLYLQMNSLRAEDTAVYYCAGGDHNSGWGLDIWGQGTLVTVSS
VL: EIVMTQSPSTLSASVGDRVIITCQASQKIHSWLAWYQQKPGKAPKLLIYQASKLAKGVPSRFSGSGSGAEFTLTISSLQPDDFATYYCQNVYLASTNGANFGQGTKLTVLK
notes: Light chain CDR variant LC2 with tagged NVS4 heavy chain
B5: LC5T (Fab, V domains shown)
VH: EVQLVESGGGLVQPGGSLRLSCTASGFSLTDYYYMTWVRQAPGKGLEWVGFIDPDDDPYYATWAKGRFTISRDNSKNTLYLQMNSLRAEDTAVYYCAGGDHNSGWGLDIWGQGTLVTVSS
VL: EIVMTQSPSTLSASVGDRVIITCQASQIIKSWLAWYQQKPGKAPKLLIYQASTLAKGVPSRFSGSGSGAEFTLTISSLQPDDFATYYCQNVYLASTNGANFGQGTKLTVLK
notes: Light chain CDR variant LC5 with tagged NVS4 heavy chain
B6: LC3T (Fab, V domains shown)
VH: EVQLVESGGGLVQPGGSLRLSCTASGFSLTDYYYMTWVRQAPGKGLEWVGFIDPDDDPYYATWAKGRFTISRDNSKNTLYLQMNSLRAEDTAVYYCAGGDHNSGWGLDIWGQGTLVTVSS
VL: EIVMTQSPSTLSASVGDRVIITCQASQKIHSWLAWYQQKPGKAPKLLIYQASKLAKGVPSRFSGSGSGAEFTLTISSLQPDDFATYYCQNVYLASRNGANFGQGTKLTVLK
notes: Light chain CDR variant LC3 with tagged NVS4 heavy chain
B7: LC1T (Fab, V domains shown)
VH: EVQLVESGGGLVQPGGSLRLSCTASGFSLTDYYYMTWVRQAPGKGLEWVGFIDPDDDPYYATWAKGRFTISRDNSKNTLYLQMNSLRAEDTAVYYCAGGDHNSGWGLDIWGQGTLVTVSS
VL: EIVMTQSPSTLSASVGDRVIITCQASQIIHSWLAWYQQKPGKAPKLLIYQASTLAKGVPSRFSGSGSGAEFTLTISSLQPDDFATYYCQNVYLASTNGANFGQGTKLTVLK
notes: Light chain CDR variant LC1 of NVS4 with tagged NVS4 heavy chain
B8: NVS101 (Fab)
heavy: EVQLVESGGGLVQPGGSLRLSCTASGFSLTDYYYMTWVRQAPGKGLEWVGFIDPDDDPYYATWAKGRFTISRDNSKNTLYLQMNSLRAEDTAVYYCAGGDHNSGWGLDIWGQGTLVTVSSASTKGPSVFPLAPSSKSTSGGTAALGCLVKDYFPEPVTVSWNSGALTSGVHTFPAVLQSSGLYSLSSVVTVPSSSLGTQTYICNVNHKPSNTKVDKRVEPKSC
light: ACGVYHREAQSGKYYLTYAEAKAVCEFEGGHLATYKQLLCAQKIGFHVCAAGWMAKGRVGYPIVKPGPNCGFGKTGIIDYGIRLNRSERWDAYCYNPHAGGGSDIVMTQSPSTLSASVGDRVIITCQASEIIHSWLAWYQQKPGKAPKLLIYLASTLASGVPSRFSGSGSGAEFTLTISSLQPDDFATYYCQNVYLASTNGANFGQGTKLTVLKRTVAAPSVFIFPPSDEQLKSGTASVVCLLNNFYPREAKVQWKVDNALQSGNSQESVTEQDSKDSTYSLSSTLTLSKADYEKHKVYACEVTHQGLSSPVTKSFNRGEC
B9: NVS4/NVSX (Fab)
heavy: EVQLVESGGGLVQPGGSLRLSCTASGFSLTDYYYMTWVRQAPGKGLEWVGFIDPDDDPYYATWAKGRFTISRDNSKNTLYLQMNSLRAEDTAVYYCAGGDHNSGWGLDIWGQGTLVTVSSASTKGPSVFPLAPSSKSTSGGTAALGCLVKDYFPEPVTVSWNSGALTSGVHTFPAVLQSSGLYSLSSVVTVPSSSLGTQTYICNVNHKPSNTKVDKRVEPKSCGSGGGGVYHREAISGKYYLTYAEAKAVCEFEGGHLATYKQLLAAQKIGFHVCAAGWMAKGRVGYPIVKPGPNCGFGKTGIIDYGIRLNRSERWDAYCYNPHA
light: EIVMTQSPSTLSASVGDRVIITCQASEIIHSWLAWYQQKPGKAPKLLIYLASTLASGVPSRFSGSGSGAEFTLTISSLQPDDFATYYCQNVYLASTNGANFGQGTKLTVLKRTVAAPSVFIFPPSDEQLKSGTASVVCLLNNFYPREAKVQWKVDNALQSGNSQESVTEQDSKDSTYSLSSTLTLSKADYEKHKVYACEVTHQGLSSPVTKSFNRGEC
notes: NVS4 Fab linked to peptide tag NVS-X
B10: NVS100 (Fab)
heavy: GACGVYHREAQSGKYYLTYAEAKAVCEFEGGHLATYKQLLCAQKIGFHVCAAGWMAKGRVGYPIVKPGPNCGFGKTGIIDYGIRLNRSERWDAYCYNPHAGGGSQVQLVESGGGLVQPGGSLRLSCTASGFSLTDYYYMTWVRQAPGKGLEWVGFIDPDDDPYYATWAKGRFTISRDNSKNTLYLQMNSLRAEDTAVYYCAGGDHNSGWGLDIWGQGTLVTVSSASTKGPSVFPLAPSSKSTSGGTAALGCLVKDYFPEPVTVSWNSGALTSGVHTFPAVLQSSGLYSLSSVVTVPSSSLGTQTYICNVNHKPSNTKVDKRVEPKSC
light: EIVMTQSPSTLSASVGDRVIITCQASEIIHSWLAWYQQKPGKAPKLLIYLASTLASGVPSRFSGSGSGAEFTLTISSLQPDDFATYYCQNVYLASTNGANFGQGTKLTVLKRTVAAPSVFIFPPSDEQLKSGTASVVCLLNNFYPREAKVQWKVDNALQSGNSQESVTEQDSKDSTYSLSSTLTLSKADYEKHKVYACEVTHQGLSSPVTKSFNRGEC
notes: Tag NVS-AX at the N-terminus of the NVS4 heavy chain
B11: NVS4/NVSY (Fab)
heavy: EVQLVESGGGLVQPGGSLRLSCTASGFSLTDYYYMTWVRQAPGKGLEWVGFIDPDDDPYYATWAKGRFTISRDNSKNTLYLQMNSLRAEDTAVYYCAGGDHNSGWGLDIWGQGTLVTVSSASTKGPSVFPLAPSSKSTSGGTAALGCLVKDYFPEPVTVSWNSGALTSGVHTFPAVLQSSGLYSLSSVVTVPSSSLGTQTYICNVNHKPSNTKVDKRVEPKSCGSGGGGVYHREAISGKYYLTYAEAKAVCEFEGGHLATYKQLQAAQKIGFHVCAAGWMAKGRVGYPIVKPGPNCGFGKTGIIDYGIRLNRSERWDAYCYNPHA
light: EIVMTQSPSTLSASVGDRVIITCQASEIIHSWLAWYQQKPGKAPKLLIYLASTLASGVPSRFSGSGSGAEFTLTISSLQPDDFATYYCQNVYLASTNGANFGQGTKLTVLKRTVAAPSVFIFPPSDEQLKSGTASVVCLLNNFYPREAKVQWKVDNALQSGNSQESVTEQDSKDSTYSLSSTLTLSKADYEKHKVYACEVTHQGLSSPVTKSFNRGEC
notes: NVS4 Fab linked to peptide tag NVS-Y
B12: NVS102 (Fab)
heavy: QVQLVESGGGLVQPGGSLRLSCTASGFSLTDYYYMTWVRQAPGKGLEWVGFIDPDDDPYYATWAKGRFTISRDNSKNTLYLQMNSLRAEDTAVYYCAGGDHNSGWGLDIWGQGTLVTVSSASTKGPSVFPLAPSSKSTSGGTAALGCLVKDYFPEPVTVSWNSGALTSGVHTFPAVLQSSGLYSLSSVVTVPSSSLGTQTYICNVNHKPSNTKVDKRVEPKSCGSGGGACGVYHREAQSGKYYLTYAEAKAVCEFEGGHLATYKQLLCAQKIGFHVCAAGWMAKGRVGYPIVKPGPNCGFGKTGIIDYGIRLNRSERWDAYCYNPHA
light: EIVMTQSPSTLSASVGDRVIITCQASEIIHSWLAWYQQKPGKAPKLLIYLASTLASGVPSRFSGSGSGAEFTLTISSLQPDDFATYYCQNVYLASTNGANFGQGTKLTVLKRTVAAPSVFIFPPSDEQLKSGTASVVCLLNNFYPREAKVQWKVDNALQSGNSQESVTEQDSKDSTYSLSSTLTLSKADYEKHKVYACEVTHQGLSSPVTKSFNRGEC
notes: Tag NVS-AX at the C-terminus of the NVS4 heavy chain

The target of one test is T1, human VEGF. Description: Biacore SPR, hVEGF. Background: In SPR one partner is held on a chip, and binding of the other changes the refractive index at the surface.
Protocol: At first, individual CDR residues were substituted and the affinity for hVEGF was measured by Biacore as described below. […] HC8T, and HC9T and the affinity of the resulting peptide-tagged Fab for both HA and hVEGF was measured by Biacore as described below (Table 17).
Affinity of optimized HA-binding peptide tags for HA and human VEGF were measured by Biacore. […] In order to determine target kinetics, two different formats were utilized. […] The second format is an anti-fab capture method in which the fab protein samples are captured and the target proteins flowed over at various concentrations.
The sample compartment which includes the analytes, ligands, and regeneration buffer, is kept at 15° C. All other running conditions were carried out at either 25° C. or 37° C. in 1×HBSE+P buffer. […] Data was collected at 10 Hz and analyzed using the Biacore T200 Evaluation Software (GE Healthcare®). This program uses a global fitting analysis method for the determination of rate and affinity constants for each interaction.
B1: the Kd amounted to 3.79 pM, the off-rate constant (koff) was determined as 0.000229 s⁻¹ and the on-rate (kon) was 6.06e+07 M⁻¹ s⁻¹.
The like results for B2 were, in that order, 1.49 pM, 0.000135 s⁻¹ and 9.1e+07 M⁻¹ s⁻¹.
B3 yielded a Kd of 1.09 pM, a dissociation rate constant (koff) of 9.66e-05 s⁻¹ and a kon of 8.88e+07 M⁻¹ s⁻¹.
In the same order, the values of B4 are 1.33 pM, 0.000109 s⁻¹ and 8.18e+07 M⁻¹ s⁻¹.
For the molecule B5, the dissociation constant (Kd) amounted to 4.35 pM, the koff was determined as 0.000588 s⁻¹ and the association rate constant (kon) is 1.35e+08 M⁻¹ s⁻¹.
For B6, the Kd worked out at 1.2 pM, the koff amounted to 0.00016 s⁻¹ and the kon is 1.34e+08 M⁻¹ s⁻¹.
The like results for B7 were, in that order, 1.23 pM, 7.3e-05 s⁻¹ and 5.95e+07 M⁻¹ s⁻¹.

The next test addresses T1, human VEGF. Description: Biacore SPR, hVEGF. This is another data set of the same source.
Consider B8, for which binding was characterised by a dissociation constant (Kd) of 7.1 pM, the off-rate constant (koff) came to 0.000219 s⁻¹ and the kon is 3.09e+07 M⁻¹ s⁻¹.
The molecule B9 returned an equilibrium dissociation constant (Kd) of 0.465 pM, a koff of 2.11e-05 s⁻¹ and a kon of 4.53e+07 M⁻¹ s⁻¹.
On to B10, for which the dissociation constant Kd came out at 1.34 pM, the off-rate constant (koff) came to 4.97e-05 s⁻¹ and the kon stood at 3.71e+07 M⁻¹ s⁻¹.
Molecule B11 yielded a Kd of 0.447 pM, an off-rate constant (koff) of 2.26e-05 s⁻¹ and a kon of 5.06e+07 M⁻¹ s⁻¹.
Consider B12, for which the affinity, expressed as Kd, was 1.43 pM; the off-rate constant (koff) came to 0.000134 s⁻¹; the on-rate (kon) amounted to 9.35e+07 M⁻¹ s⁻¹.

The term Kd denotes the constant that tells how readily two partners part at equilibrium. Read a low Kd as tighter binding. Broadly, the koff is the rate constant with which the complex falls apart. A high value points to a short-lived complex. One may read the kon as the second-order rate constant of association.
